Assays:
[1] = target: recombinant wild-type human alpha-synuclein
[2] = target: alpha synuclein familial mutant A53T
[3] = target: alpha synuclein familial mutant E46K
[4] = target: alpha synuclein familial mutant A30P

Chain of beta synuclein, Q16143 (Q16143 whole entry): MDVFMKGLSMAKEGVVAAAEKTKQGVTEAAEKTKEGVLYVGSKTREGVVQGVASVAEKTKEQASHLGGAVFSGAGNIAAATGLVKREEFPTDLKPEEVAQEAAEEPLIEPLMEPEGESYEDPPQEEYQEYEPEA

B1: Polo like kinase 2 (PLK2) (protein)
chain: MELLRTITYQPAASTKMCEQALGKGCGADSKKKRPPQPPEESQPPQSQAQVPPAAPHHHHHHSHSGPEISRIIVDPTTGKRYCRGKVLGKGGFAKCYEMTDLTNNKVYAAKIIPHSRVAKPHQREKIDKEIELHRILHHKHVVQFYHYFEDKENIYILLEYCSRRSMAHILKARKVLTEPEVRYYLRQIVSGLKYLHEQEILHRDLKLGNFFINEAMELKVGDFGLAARLEPLEHRRRTICGTPNYLSPEVLNKQGHGCESDIWALGCVMYTMLLGRPPFETTNLKETYRCIREARYTMPSSLLAPAKHLIASMLSKNPEDRPSLDDIIRHDFFLQGFTPDRLSSSCCHTVPDFHLSSPAKNFFKKAAAALFGGKKDKARYIDTHNRVSKEDEDIYKLRHDLKKTSITQQPSKHRTDEELQPPTTTVARSGTPAVENKQQIGDAIRMIVRGTLGSCSSSSECLEDSTMGSVADTVARVLRGCLENMPEADCIPKEQLSTSFQWVTKWVDYSNKYGFGYQLSDHTVGVLFNNGAHMSLLPDKKTVHYYAELGQCSVFPATDAPEQFISQVTVLKYFSHYMEENLMDGGDLPSVTDIRRPRLYLLQWLKSDKALMMLFNDGTFQVNFYHDHTKIIICSQNEEYLLTYINEDRISTTFRLTTLLMSGCSSELKNRMEYALNMLLQRCN
Fold Change in Percent Synuclein Phosphorylation, HEK-293 overexpression [1]: 21.2 fold | PLK2 activity in vitro, autoradiography [1]: PLK2 was found to be more active against wild-type alpha synuclein than beta synuclein | Proportion of total synuclein that is phoshorylated at ser-129, HEK-293 overexpression, ELISA [1]: 42.3% | S129 phosphorylation, immunoblot (11A5), kinase:AS 1:200 molar [1]: Prominent signals came from GRK6, CKI, CKII and PLK2 | S129 phosphorylation, immunoblot (11A5), rank of signal [1]: CKI>GRK6>PLK2>GRK4>GRK5>GRK2 | extent of S129 phosphorylation by mass spectrometry after co-expression in bacteria [1]: more than 95% phosphorylated | in vitro biochemical assay, phosphorylation of synuclein [1]: PLK2 and PLK3 having extremely robust phosphorylation of synuclein | in vitro kinase reaction, phosphorylation of alpha-synuclein at serine 129 [1]: capable of phosphorylating alpha-synuclein specifically at serine 129 and did not phosphorylate serine 87 in vitro | phospho ser-129 level in vitro, normalised for molarity [1]: roughly equivalent levels of phospho ser-129 between CKI, GRK6 and PLK2 | PLK2 activity in vitro, autoradiography [2]: the mutant alpha-synucleins were phosphorylated more at a given concentration (especially at lower concentrations) than WT | PLK2 activity in vitro, autoradiography (beta synuclein, Q16143): minimally against beta synuclein | PLK2 activity in vitro, autoradiography [3]: the mutant alpha-synucleins were phosphorylated more at a given concentration (especially at lower concentrations) than WT | PLK2 activity in vitro, autoradiography [4]: the mutant alpha-synucleins were phosphorylated more at a given concentration (especially at lower concentrations) than WT
